Laboratory results reported in article doi:10.1101/2024.10.29.620959.

Assays:
[1] = target: FadD5(1-448), N-terminal domain construct of Mycobacterium tuberculosis FadD5 (Mycobacterium tuberculosis H37Rv); assay: SEC-MALS
[2] = target: Mycobacterium tuberculosis FadD5 (fatty acyl-CoA synthetase, Rv0166), full length (Mycobacterium tuberculosis H37Rv); assay: SAXS
[3] = target: Mycobacterium tuberculosis FadD5 (fatty acyl-CoA synthetase, Rv0166), full length (Mycobacterium tuberculosis H37Rv); assay: SEC-MALS
[4] = target: Mycobacterium tuberculosis FadD5 (fatty acyl-CoA synthetase, Rv0166), full length (Mycobacterium tuberculosis H37Rv); assay: native gel or EMSA

## FadD5(1-448), N-terminal domain construct of Mycobacterium tuberculosis FadD5 (domain or fragment)
[1]
  stoichiometry N: 2

## Mycobacterium tuberculosis FadD5 (fatty acyl-CoA synthetase, Rv0166), full length (enzyme)
[2]
  stoichiometry N: 2
[3]
  stoichiometry N: 2
[4]
  stoichiometry N: 2
